Measured values: paper PMC4451422, “Catch me if you can: a biotinylated proteoliposome affinity assay for the investigation of assembly of the MexA-MexB-OprM efflux pump from Pseudomonas aeruginosa” (Frontiers in Microbiology, 2015)

T1: MexAB: MexA (palmitoylated) and MexB reconstituted together in biotinylated proteoliposomes (Pseudomonas aeruginosa, UniProt P52477 24-383; P52002 1-1046, palmitoylated (lipid anchor); residue not stated)
T1 construct: MexA, Pseudomonas aeruginosa, palmitoylated version; as m1; MexB, Pseudomonas aeruginosa; as m3; also called MexAB proteoliposomes; MexA and MexB; source: each protein from C43 ΔAcrB strain, purified; reconstituted together in proteoliposomes with biotinylated lipids
T1 sequence 1: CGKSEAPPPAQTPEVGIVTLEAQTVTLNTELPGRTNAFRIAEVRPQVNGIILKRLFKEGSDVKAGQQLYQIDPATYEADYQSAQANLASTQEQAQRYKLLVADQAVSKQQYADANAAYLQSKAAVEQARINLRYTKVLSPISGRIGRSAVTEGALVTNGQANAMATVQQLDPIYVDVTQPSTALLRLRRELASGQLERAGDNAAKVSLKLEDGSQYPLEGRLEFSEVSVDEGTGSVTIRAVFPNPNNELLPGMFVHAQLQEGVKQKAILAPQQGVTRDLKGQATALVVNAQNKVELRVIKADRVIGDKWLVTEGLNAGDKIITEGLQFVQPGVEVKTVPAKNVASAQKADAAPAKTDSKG
T1 sequence 2: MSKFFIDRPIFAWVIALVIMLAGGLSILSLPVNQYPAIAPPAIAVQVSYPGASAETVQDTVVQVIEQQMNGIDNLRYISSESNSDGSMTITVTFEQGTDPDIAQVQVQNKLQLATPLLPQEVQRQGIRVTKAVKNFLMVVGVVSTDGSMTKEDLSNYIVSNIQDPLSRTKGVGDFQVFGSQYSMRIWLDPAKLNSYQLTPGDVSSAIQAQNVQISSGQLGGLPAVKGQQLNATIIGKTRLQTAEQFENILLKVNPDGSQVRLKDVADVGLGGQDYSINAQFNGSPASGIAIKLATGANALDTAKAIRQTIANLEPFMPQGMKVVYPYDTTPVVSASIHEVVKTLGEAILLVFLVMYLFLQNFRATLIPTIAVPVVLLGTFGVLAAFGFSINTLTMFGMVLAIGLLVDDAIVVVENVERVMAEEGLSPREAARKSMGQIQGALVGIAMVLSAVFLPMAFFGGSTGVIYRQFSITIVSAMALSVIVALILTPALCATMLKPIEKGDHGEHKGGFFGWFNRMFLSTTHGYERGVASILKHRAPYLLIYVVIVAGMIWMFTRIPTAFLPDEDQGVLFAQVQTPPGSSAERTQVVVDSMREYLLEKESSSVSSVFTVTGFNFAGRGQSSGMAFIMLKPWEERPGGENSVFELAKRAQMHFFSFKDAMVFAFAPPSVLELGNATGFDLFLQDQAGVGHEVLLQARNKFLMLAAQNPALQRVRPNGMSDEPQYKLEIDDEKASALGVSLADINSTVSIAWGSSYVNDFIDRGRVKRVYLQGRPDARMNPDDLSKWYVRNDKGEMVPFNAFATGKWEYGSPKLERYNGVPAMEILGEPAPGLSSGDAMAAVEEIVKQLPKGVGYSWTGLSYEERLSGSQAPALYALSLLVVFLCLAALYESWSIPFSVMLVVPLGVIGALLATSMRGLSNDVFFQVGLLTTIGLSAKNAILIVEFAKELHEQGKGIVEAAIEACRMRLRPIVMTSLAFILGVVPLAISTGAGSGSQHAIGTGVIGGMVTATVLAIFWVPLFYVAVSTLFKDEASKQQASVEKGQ

T2: MexAB_(D407N): MexA (palmitoylated) and the inactive MexB D407N mutant reconstituted together in biotinylated … (Pseudomonas aeruginosa, UniProt P52477 24-383; P52002 1-1046, D407N, palmitoylated (lipid anchor); residue not stated)
T2 construct: MexA, Pseudomonas aeruginosa, palmitoylated version; as m1; also called MexA and MexB_(D407N); source: reconstituted together in proteoliposomes with biotinylated lipids
T2 sequence (looked up) 1: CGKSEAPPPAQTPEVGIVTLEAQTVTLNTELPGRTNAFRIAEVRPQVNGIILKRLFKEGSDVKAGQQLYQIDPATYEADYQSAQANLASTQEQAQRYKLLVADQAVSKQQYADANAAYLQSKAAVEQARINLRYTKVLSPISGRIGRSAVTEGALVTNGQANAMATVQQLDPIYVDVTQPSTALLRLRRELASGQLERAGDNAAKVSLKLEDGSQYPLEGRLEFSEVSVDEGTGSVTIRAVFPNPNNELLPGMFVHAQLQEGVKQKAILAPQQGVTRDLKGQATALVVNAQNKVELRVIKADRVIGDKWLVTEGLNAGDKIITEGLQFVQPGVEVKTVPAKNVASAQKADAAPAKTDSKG
T2 sequence (looked up) 2: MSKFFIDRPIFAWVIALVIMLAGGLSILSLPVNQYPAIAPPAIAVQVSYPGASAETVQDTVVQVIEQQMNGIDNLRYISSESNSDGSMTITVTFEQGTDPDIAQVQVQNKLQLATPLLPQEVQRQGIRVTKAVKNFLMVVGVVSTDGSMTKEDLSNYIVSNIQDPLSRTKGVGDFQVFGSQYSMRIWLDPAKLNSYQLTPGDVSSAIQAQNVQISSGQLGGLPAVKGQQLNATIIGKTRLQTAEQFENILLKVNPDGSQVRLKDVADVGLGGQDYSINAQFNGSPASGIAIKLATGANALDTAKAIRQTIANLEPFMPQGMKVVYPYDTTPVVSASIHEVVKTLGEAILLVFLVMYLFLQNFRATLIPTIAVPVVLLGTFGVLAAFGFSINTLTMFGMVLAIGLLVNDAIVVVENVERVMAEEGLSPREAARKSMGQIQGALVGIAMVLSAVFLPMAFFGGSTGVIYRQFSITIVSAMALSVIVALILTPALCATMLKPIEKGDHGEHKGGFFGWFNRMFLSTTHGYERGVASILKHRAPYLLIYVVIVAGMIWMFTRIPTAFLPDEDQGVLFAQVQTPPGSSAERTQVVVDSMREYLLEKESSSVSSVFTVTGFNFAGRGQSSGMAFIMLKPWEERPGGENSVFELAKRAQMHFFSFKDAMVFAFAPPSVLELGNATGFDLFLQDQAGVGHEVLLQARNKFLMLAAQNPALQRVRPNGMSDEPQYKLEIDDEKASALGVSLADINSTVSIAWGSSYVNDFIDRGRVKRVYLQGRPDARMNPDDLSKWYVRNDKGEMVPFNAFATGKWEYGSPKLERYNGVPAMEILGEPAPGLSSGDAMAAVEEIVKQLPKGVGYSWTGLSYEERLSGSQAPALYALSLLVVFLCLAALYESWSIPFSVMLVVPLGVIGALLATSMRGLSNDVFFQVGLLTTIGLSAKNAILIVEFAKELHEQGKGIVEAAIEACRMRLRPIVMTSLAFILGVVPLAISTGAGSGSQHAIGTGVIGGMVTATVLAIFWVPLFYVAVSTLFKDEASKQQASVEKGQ

T3: MexB (Pseudomonas aeruginosa, UniProt P52002 1-1046)
T3 construct: MexB, RND inner membrane transporter of the MexA-MexB-OprM efflux pump, Pseudomonas aeruginosa; Purified by the protocol of Mokhonov et al., 2005 with minor modifications; also called MexB alone; RND pump
T3 sequence: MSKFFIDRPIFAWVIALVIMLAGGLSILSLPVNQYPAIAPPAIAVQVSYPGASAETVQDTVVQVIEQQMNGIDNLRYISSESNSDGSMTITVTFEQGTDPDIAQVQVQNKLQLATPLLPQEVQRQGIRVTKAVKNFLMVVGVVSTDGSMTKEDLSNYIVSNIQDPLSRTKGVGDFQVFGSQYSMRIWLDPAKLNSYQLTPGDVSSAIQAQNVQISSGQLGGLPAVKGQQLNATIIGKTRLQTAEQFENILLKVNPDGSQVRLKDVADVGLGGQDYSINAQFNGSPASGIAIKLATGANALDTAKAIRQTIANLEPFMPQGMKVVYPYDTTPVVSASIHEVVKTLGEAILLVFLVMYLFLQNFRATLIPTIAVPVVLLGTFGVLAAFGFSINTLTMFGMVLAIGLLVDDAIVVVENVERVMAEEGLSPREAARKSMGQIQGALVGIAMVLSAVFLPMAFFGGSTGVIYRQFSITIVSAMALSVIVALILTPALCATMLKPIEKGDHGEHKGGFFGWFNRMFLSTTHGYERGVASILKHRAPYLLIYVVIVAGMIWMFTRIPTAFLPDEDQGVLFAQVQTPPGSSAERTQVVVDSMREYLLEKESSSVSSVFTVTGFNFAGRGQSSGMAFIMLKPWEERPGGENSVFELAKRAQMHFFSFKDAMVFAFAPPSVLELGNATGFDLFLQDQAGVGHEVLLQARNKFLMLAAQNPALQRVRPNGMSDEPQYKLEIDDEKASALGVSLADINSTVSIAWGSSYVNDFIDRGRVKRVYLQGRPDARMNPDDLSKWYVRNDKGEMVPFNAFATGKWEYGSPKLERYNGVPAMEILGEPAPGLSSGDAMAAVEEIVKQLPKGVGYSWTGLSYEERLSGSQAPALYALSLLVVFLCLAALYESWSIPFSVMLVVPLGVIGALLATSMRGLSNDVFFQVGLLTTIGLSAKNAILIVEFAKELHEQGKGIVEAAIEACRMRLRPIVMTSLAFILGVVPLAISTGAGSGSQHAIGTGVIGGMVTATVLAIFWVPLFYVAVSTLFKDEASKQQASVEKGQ


What was measured:
Experiment in all cases: pull-down; MagStrep (streptavidin) magnetic beads sediment biotin-lipid proteoliposomes with MexB or MexAB; OprM in separate proteoliposomes; non-energized: 25 mM Hepes pH7, 100 mM K2SO4, 2 mM MgSO4; 20 min at room temperature; pellets on SDS-PAGE, Coomassie
Settings in all cases: both partners purified
[1] = target: T1, MexAB: MexA (palmitoylated) and MexB …
[2] = target: T2, MexAB_(D407N): MexA (palmitoylated) and …
MexB = target: T3, MexB

Row | Binder | binding result [1] | binding result [2] | binding result (MexB)
1 | OprM (natural protein, OprM, outer membrane channel of the MexA-MexB-OprM efflux pump, Pseudomonas aeruginosa; Purified by the protocol of Phan et al., 2010 with minor modifications; also called OMF; OprM proteoliposomes) CSLIPDYQRPEAPVAAAYPQGQAYGQNTGAAAVPAADIGWREFFRDPQLQQLIGVALENNRDLRVAALNVEAFRAQYRIQRADLFPRIGVDGSGTRQRLPGDLSTTGSPAISSQYGVTLGTTAWELDLFGRLRSLRDQALEQYLATEQAQRSAQTTLVASVATAYLTLKADQAQLQLTKDTLGTYQKSFDLTQRSYDVGVASALDLRQAQTAVEGARATLAQYTRLVAQDQNALVLLLGSGIPANLPQGLGLDQTLLTEVPAGLPSDLLQRRPDILEAEHQLMAANASIGAARAAFFPSISLTANAGTMSRQLSGLFDAGSGSWLFQPSINLPIFTAGSLRASLDYAKIQKDINVAQYEKAIQTAFQEVADGLAARGTFTEQLQAQRDLVKASDEYYQLADKRYRTGVDNYLTLLDAQRSLFTAQQQLITDRLNQLTSEVNLYKALGGGWNQQTVTQQQTAKKEDPQA | binds | binds | –
2 | MexAnp, truncated "cysteine-less" form of MexA without its first 24 residues (non-palmitoylated, soluble) (domain or fragment, MexA, Pseudomonas aeruginosa, without its first 24 residues; non-palmitoylated, soluble; no point mutation is printed; also called soluble version of MexA; soluble MexA; source: generated in the laboratory, produced and purified) GKSEAPPPAQTPEVGIVTLEAQTVTLNTELPGRTNAFRIAEVRPQVNGIILKRLFKEGSDVKAGQQLYQIDPATYEADYQSAQANLASTQEQAQRYKLLVADQAVSKQQYADANAAYLQSKAAVEQARINLRYTKVLSPISGRIGRSAVTEGALVTNGQANAMATVQQLDPIYVDVTQPSTALLRLRRELASGQLERAGDNAAKVSLKLEDGSQYPLEGRLEFSEVSVDEGTGSVTIRAVFPNPNNELLPGMFVHAQLQEGVKQKAILAPQQGVTRDLKGQATALVVNAQNKVELRVIKADRVIGDKWLVTEGLNAGDKIITEGLQFVQPGVEVKTVPAKNVASAQKADAAPAKTDSKG | – | – | binds
